US7256013B2, “Kit for determining the acetylation level of a peptide based on sensitivity of the peptide to peptidase” (Cyclex Co., Ltd., priority 1999, dated 2007)
One block for each molecule: values may come before it. The star is where a group is joined. AMC = Cc1cc(=O)oc2cc(N*)ccc12; Boc = CC(C)(C)OC(=O)*

Legend:
[1] = target: lysylendopeptidase (Achromobacter lyticus, UniProt P15636); assay: Cleavage of fluorescence-labeled substrate peptide by lysylendopeptidase; type: biochemical; settings: 5×10^−6 AU lysylendopeptidase; FIG. 1
Chain of lysylendopeptidase (P15636 206-473 limits assumed, species assumed): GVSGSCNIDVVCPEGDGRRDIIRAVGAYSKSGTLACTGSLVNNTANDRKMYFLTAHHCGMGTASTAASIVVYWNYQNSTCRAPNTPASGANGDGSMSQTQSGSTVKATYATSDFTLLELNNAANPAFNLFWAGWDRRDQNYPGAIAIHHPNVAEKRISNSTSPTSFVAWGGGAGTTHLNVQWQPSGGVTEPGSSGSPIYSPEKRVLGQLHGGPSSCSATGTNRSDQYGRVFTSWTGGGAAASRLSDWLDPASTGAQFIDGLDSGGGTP
Method: (§1) 1 μl of DMSO solution containing 10 mM substrate peptide, Boc-Val-Leu-(Ac)Lys-MCA, was added to 64 μl HDAC reaction buffer (25 mM Tris-HCl pH 7.5) for each assay. The mixture was poured into the wells of a microplate for fluorometry and was incubated at 30° C. Then, 10 μl of histone deacetylase solution was added to each well and the plate was subjected for deacetylation at 30° C. for 60 minutes. After the reaction, 5 μl of peptidase solution that was diluted with 25 mM Tris-HCl (pH 7.5) to an optimal concentration and 20 μl 5× protease reaction buffer were added to each well. The fluorescence intensity was measured every 150 seconds with fluorescence microplate reader. The fluorescence intensity was measured using Wallac 1420 ARVOsx Multi Label Counter (Amersham-Pharmacia Biotech). The composition of the reaction buffer was as follows.
(§2) 5×10^−6 AU lysylendopeptidase or 0.001U plasmin was added to Boc-Val-Leu-Lys-MCA or Boc-Val-Leu-(Ac)Lys-MCA. The Figures show the fluorescence intensity measured at an interval of about 150-seconds.

[2] = target: plasmin (Homo sapiens, UniProt P00747); assay: Cleavage of fluorescence-labeled substrate peptide by plasmin; type: biochemical; settings: 0.001U plasmin; FIG. 2
Chain of plasmin (P00747 581-810 limits assumed, species assumed): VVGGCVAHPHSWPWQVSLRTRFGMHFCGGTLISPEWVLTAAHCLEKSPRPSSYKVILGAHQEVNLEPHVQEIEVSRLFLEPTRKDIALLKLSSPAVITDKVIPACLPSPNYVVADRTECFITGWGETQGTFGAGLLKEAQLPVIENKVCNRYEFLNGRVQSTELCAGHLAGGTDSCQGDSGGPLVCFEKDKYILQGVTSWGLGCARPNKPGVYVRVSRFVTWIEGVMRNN
Chain of plasmin (P00747 97-580 partner limits assumed, species assumed): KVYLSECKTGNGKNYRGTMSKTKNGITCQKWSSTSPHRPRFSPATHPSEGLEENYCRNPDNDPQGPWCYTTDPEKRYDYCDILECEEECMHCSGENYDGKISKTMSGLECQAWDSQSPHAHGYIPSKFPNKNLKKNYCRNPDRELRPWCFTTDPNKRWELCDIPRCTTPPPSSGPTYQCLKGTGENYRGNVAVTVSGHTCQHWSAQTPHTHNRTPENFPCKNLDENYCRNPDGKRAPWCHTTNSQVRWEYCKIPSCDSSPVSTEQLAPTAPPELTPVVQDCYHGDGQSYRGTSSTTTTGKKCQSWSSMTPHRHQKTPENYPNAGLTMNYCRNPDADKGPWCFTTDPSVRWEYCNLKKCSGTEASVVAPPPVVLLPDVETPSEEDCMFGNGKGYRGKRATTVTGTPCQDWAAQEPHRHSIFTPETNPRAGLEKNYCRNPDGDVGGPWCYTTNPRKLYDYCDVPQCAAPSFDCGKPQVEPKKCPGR
Method: as §1, §2

[3] = target: T1, recombinant SIRT1 (Homo sapiens, UniProt Q96EB6); assay: SIRT1 deacetylase activity assay (FMAP) with Nma-VGAK(Ac)RHSK(Dnp)-NH2 and lysylendopeptidase; type: biochemical; settings: serial dilutions of NAD added to the reaction solution; FIG. 7
T1 construct: the first amino acid residue to the 747th residue of SIRT1 (full length) was amplified using this primer set; made in house; host or cells: E. coli BL21 Gold (DE3), vector pGEX-4T-1
T1 sequence (Q96EB6 1-747): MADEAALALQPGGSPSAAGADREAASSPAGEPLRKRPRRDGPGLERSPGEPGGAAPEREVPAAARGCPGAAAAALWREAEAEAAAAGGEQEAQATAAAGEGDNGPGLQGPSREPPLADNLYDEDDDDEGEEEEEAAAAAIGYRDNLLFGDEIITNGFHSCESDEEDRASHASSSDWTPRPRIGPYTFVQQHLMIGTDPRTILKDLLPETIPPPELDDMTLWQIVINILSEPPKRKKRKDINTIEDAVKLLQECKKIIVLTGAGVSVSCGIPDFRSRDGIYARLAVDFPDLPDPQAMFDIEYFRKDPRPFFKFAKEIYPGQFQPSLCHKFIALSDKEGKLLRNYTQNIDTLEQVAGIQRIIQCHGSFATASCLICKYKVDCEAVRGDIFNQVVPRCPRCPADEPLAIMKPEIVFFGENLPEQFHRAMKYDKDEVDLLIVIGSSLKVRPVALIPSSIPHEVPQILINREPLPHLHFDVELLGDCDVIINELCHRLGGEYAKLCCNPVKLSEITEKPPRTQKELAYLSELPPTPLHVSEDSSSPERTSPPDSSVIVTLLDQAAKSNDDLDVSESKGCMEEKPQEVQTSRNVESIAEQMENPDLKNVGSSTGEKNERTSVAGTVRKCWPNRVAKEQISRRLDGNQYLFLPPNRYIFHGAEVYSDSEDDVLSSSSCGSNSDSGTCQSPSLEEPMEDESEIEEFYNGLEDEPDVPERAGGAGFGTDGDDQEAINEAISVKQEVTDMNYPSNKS
Method: Peptide for the SIRT1-activity assay: Nma-VGAK(Ac)RHSK(Dnp)-NH2
5 μl of 0.005 U/μl lysylendopeptidase (LEP) was combined with 90 μl of an enzyme reaction buffer (50 mM Tris-HCl (pH 8.8), 4 mM MgCl2, 0.2 mM DTT) and 1 μl of 10 mM peptide solution for SIRT1-activity assay. 2 μl of 5 mM NAD and 2 μl of each of serial dilutions of a recombinant SIRT1 solution, or alternatively 2 μl of each of serial dilutions of an NAD solution and 2 μl of a solution containing 1 mg/ml recombinant SIRT1 were added at the same time to the mixture. The enzyme reaction and fluorescence assay were performed at 30° C. using 384-well plates for fluorescence assay.
The fluorescence intensity was measured at excitation wavelength 355 nm/fluorescence wavelength 460 nm by using a Wallac 1420 ARVO HTS Multi Label Counter. The measurement was repeated at about 2- to 3-minute intervals for 50 minutes.
It has been reported that the presence of NAD is essential for the deacetylase activity of SIRT1. In order to assess whether the NAD-dependency of SIRT1 activity can be detected using the assay method, an NAD solution was serially diluted and each dilution was added to the reaction solution, and then observation was made for the changes in the fluorescence intensity.

[4] = tested on: histone deacetylase; assay: Histone deacetylase activity assay with Boc-Val-Leu-(Ac)Lys-MCA and lysylendopeptidase (fluorescence); type: biochemical, human; settings: at a concentration of about 200 nM; FIG. 5
Method: MCF7 cells were washed with PBS, and then centrifuged. Precipitated cells were suspended in 4 ml lysis buffer and were left standing 15 minutes on ice. 5 ml lysate buffer was obtained by washing the centrifuge tube with 1 ml lysis buffer. The lysate was loaded on 15 ml sucrose cushion buffer in a centrifuge tube for type-07 rotor. Then, The tubes were centrifuged at 1300 g for 20 minutes and precipitated cells were recovered with 1.5 ml of the lysis buffer. After washing the cells, the cells were suspended in 700 μl low-salt buffer. The cells were sonicated for 30 seconds, and then allowed to stand still on ice for 30 minutes. The lysate was centrifuged at 100,000 g for 40 minutes, and the supernatant was collected to recover crude histone deacetylase. The pooled crude histone deacetylase was placed in a 1.5-ml tube, and was dialyzed overnight against a solution containing 50% glycerol, 150 mM NaCl, and 20 mM Tris (pH 7.5). The dialysate was substituted 3 times with fresh buffer. […]
1 μl of DMSO solution containing 10 mM substrate peptide, Boc-Val-Leu-(Ac)Lys-MCA, was added to 64 μl HDAC reaction buffer (25 mM Tris-HCl pH 7.5) for each assay. […] The fluorescence intensity was measured every 150 seconds with fluorescence microplate reader. The fluorescence intensity was measured using Wallac 1420 ARVOsx Multi Label Counter (Amersham-Pharmacia Biotech). […]

Molecule: Boc-Val-Leu-Lys-MCA (Boc-Val-Leu-Lys-{AMC}) [fluorescence labeled substrate peptide, non-acetylated]
peptide cleavage by lysylendopeptidase [1]: digested
peptide cleavage by plasmin [2]: digested

Molecule: Boc-Val-Leu-(Ac)Lys-MCA (VLK; HELM PEPTIDE1{[CC(C)(C)OC(=O)[*:2]].V.L.K.[Cc1cc(=O)oc2cc(N[*:1])ccc12]}|PEPTIDE2{[ac]}$PEPTIDE1,PEPTIDE2,4:R3-1:R2$$$V2.0; SMILES CC(=O)NCCCC[C@H](NC(=O)[C@H](CC(C)C)NC(=O)[C@@H](NC(=O)OC(C)(C)C)C(C)C)C(=O)Nc1ccc2c(C)cc(=O)oc2c1) [fluorescence labeled substrate peptide with an acetylated lysine residue]
peptide cleavage by lysylendopeptidase [1]: did not cleave
peptide cleavage by plasmin [2]: did not cleave

Molecule: NC(=O)c1ccc[n+]([C@@H]2O[C@H](COP(=O)([O-])OP(=O)(O)OC[C@H]3O[C@@H](n4cnc5c(N)ncnc54)[C@H](O)[C@@H]3O)[C@@H](O)[C@H]2O)c1 [NAD]
fluorescence intensity (deacetylation activity of recombinant SIRT1) [3]: increased in an NAD concentration-dependent fashion

effect on the deacetylation reaction (inhibition) [4]: almost completely inhibited
Molecule: CC(/C=C/C(=O)NO)=C\[C@@H](C)C(=O)c1ccc(N(C)C)cc1 [Trichostatin A]
